Measured values from article PMC3961674.

Biological target: variant 92787 (77405 N-terminally fused to wild-type ubiquitin carrying an S57C substitution) (human) (UniProt P0CG48)
Assay: affinity chromatography; 92787 coupled to SulfoLink resin (1 ml columns); 200 μg of 67B89 spiked into 2 ml of PBS, NHDF cell lysate or serum, washed with PBS pH 7.4, eluted with PBS pH 2.2; fractions on SDS-PAGE

Sequence of 67B89 (ED-B domain of fibronectin flanked by its N-terminal domains 6 and 7 and C-terminal domains 8 and 9) (P02751 1080-1541): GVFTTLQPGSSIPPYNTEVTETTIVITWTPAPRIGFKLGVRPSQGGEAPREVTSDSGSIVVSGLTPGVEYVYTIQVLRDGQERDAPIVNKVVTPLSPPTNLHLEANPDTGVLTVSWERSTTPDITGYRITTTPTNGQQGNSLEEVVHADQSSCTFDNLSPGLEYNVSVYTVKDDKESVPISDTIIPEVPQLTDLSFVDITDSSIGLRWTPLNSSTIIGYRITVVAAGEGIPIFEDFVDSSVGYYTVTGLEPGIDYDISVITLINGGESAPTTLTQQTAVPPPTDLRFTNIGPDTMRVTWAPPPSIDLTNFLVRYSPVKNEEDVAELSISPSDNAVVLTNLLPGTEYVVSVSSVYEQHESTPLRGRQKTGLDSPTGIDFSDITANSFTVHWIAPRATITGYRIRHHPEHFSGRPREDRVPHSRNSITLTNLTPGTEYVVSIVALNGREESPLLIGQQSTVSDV

Question: Which percent of applied 67B89 recovered from the 92787 resin does the source give for “67B89 (ED-B domain of fibronectin flanked by its N-terminal domains 6 and 7 and C-terminal domains 8 and 9) (from UniProt P02751-7 1080-1541) (domain or fragment)” here?
Answer: Its percent of applied 67B89 recovered from the 92787 resin is greater than 85%.
